Measured values as given in patent US7642244 (Hoffmann-La Roche, dated 2010).
Starred links: 1 amine or outer side, 2 acyl side, 3 side chain; linkers in the order of their positions; H or OH if unused. Non-standard residues stand in square brackets, D forms with d. Primed or numbered codes have the meaning given here. *: point of attachment. Pqa = 4-oxo-6-(1-piperazinyl)-3(4H)-quinazoline-acetic acid, O=C(Cn1cnc2ccc(N3CCN([*:1])CC3)cc2c1=O)[*:2]; Adamantane1carbonyl = O=C(C12CC3CC(CC(C3)C1)C2)*; PEG30,000 SSA″ = PEG-CH2CH2NHCOCH2CH2CO-; PEG30,000 SPA = (PEG-30,000)CH2CH2CO; NMeR = CN[C@@H](CCCNC(=N)N)C(=O)O

T1: human NPY2 receptor (human, UniProt P49146 1-381)
T1 sequence (looked up): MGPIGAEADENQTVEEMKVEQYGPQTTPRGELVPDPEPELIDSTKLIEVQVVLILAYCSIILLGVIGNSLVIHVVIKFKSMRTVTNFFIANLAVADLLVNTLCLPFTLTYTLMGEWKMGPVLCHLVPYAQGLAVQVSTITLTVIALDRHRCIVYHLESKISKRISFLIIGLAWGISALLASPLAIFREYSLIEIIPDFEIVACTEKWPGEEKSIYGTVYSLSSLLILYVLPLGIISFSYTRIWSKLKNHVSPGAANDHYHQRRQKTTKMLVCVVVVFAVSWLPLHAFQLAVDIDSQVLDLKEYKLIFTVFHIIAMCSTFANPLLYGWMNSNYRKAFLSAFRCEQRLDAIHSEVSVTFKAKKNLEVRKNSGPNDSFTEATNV

T2: Y5R
T2 sequence (Q15761 whole entry, species assumed, looked up): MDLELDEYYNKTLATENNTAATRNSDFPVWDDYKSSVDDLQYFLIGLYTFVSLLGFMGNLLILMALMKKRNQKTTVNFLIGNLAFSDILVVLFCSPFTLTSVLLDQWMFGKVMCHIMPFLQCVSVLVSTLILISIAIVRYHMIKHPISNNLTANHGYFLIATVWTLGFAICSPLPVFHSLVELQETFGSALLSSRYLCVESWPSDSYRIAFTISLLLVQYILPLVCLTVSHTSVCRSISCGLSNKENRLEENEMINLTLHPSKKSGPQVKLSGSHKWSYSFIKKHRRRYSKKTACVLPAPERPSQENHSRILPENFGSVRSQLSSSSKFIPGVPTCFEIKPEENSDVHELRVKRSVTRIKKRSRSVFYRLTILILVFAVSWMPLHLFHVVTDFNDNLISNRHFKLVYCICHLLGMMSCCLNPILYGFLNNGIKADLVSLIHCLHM

B1: H-Ile-Lys-Pqa-Arg-His-Tyr-Leu-Asn-Leu-Val-Thr-Arg-Gln-NMe)Arg-Trp-NH2 (peptide)
peptide: IKXRHYLNLVTRQRW
HELM: PEPTIDE1{I.K.[O=C(Cn1cnc2ccc(N3CCN([*:1])CC3)cc2c1=O)[*:2]].R.H.Y.L.N.L.V.T.R.Q.[meR].W.[am]}$$$$V2.0
SMILES: CC[C@H](C)[C@H](N)C(=O)N[C@@H](CCCCN)C(=O)N1CCN(c2ccc3ncn(CC(=O)N[C@@H](CCCNC(=N)N)C(=O)N[C@@H](Cc4c[nH]cn4)C(=O)N[C@@H](Cc4ccc(O)cc4)C(=O)N[C@@H](CC(C)C)C(=O)N[C@@H](CC(N)=O)C(=O)N[C@@H](CC(C)C)C(=O)N[C@H](C(=O)N[C@H](C(=O)N[C@@H](CCCNC(=N)N)C(=O)N[C@@H](CCC(N)=O)C(=O)N(C)[C@@H](CCCNC(=N)N)C(=O)N[C@@H](Cc4c[nH]c5ccccc45)C(N)=O)[C@@H](C)O)C(C)C)c(=O)c3c2)CC1
B2: Adamantoyl-Ile-Lys-Pqa-Arg-His-Tyr-Leu-Asn-Trp-Val-Thr-Arg-Gln-(NMe)Arg-Tyr-NH2 (peptide)
peptide: Adamantane1carbonyl-IK[Pqa]RHYLNWVTRQ[NMeR]Y-NH2
B3: Ac-Ile((PEG-30,000)CH2CH2NHCOCH2CH2CO)(ε)Lys-Pqa-Arg-His-Tyr-Leu-Asn-Trp-Val-Thr-Arg-Gln-(NMe)Arg-Tyr-NH2 (peptide)
peptide: Ac-IK(PEG30,000 SSA″)[Pqa]RHYLNWVTRQ[NMeR]Y-NH2
B4: Ac-Ile(PEG-30,000)CH2CH2CO(ε)Lys-Pqa-Arg-His-Tyr-Leu-Asn-Trp-Val-Thr-Arg-Gln-(NMe)Arg-Tyr-NH2 (peptide)
peptide: Ac-IK(PEG30,000 SPA)[Pqa]RHYLNWVTRQ[NMeR]Y-NH2

Legend:
Assay in all cases: cell-based or functional assay
human NPY2 receptor = target: T1, human NPY2 receptor
Y4R = target: Y4R
Y1R = target: Y1R
Chain of Y1R (P25929 whole entry): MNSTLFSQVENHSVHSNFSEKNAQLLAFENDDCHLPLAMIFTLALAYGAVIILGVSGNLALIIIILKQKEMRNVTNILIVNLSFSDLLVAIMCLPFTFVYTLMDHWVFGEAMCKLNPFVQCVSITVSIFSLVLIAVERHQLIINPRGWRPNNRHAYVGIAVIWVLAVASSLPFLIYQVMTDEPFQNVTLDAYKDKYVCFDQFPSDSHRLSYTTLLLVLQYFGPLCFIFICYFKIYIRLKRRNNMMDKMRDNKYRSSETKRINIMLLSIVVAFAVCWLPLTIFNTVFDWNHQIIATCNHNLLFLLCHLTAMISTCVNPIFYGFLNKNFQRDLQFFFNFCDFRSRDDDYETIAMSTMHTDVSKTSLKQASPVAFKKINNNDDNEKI

Y5R = target: T2, Y5R

| Binder | Y2R EC50 (nM) FLIPR (human NPY2 receptor) | Y2R EC50 (nM) cAMP (human NPY2 receptor) | Y4R EC50 (nM) FLIPR (Y4R) | Y1R EC50 (nM) FLIPR (Y1R) | Y5R EC50 (nM) FLIPR (Y5R) |
| --- | --- | --- | --- | --- | --- |
| B1 | 0.454 nM | 1.06 nM | > 5000 nM | > 5000 nM | > 5000 nM |
| B2 | 2.33 nM | 2.9 nM | > 5000 nM | > 5000 nM | > 5000 nM |
| B3 | 1080 nM | 20.7 nM | > 5000 nM | > 5000 nM | > 5000 nM |
| B4 | 549 nM | 24.4 nM | > 5000 nM | > 5000 nM | > 5000 nM |
